The target in the series is GST-ELAVL3 (UniProt Q14576 1-367). As to the kind of experiment: EMSA; 5 mM Mg2+; RNA-EMSA: 20 mM Tris-HCl (pH not stated), 100 mM NaCl, 5 mM MgCl2, 2 mM DTT, 37 C 1 h, 6% native gel at 4 C; pull-down: 50 pmol probe on beads, cell lysate, 4 C overnight. Conditions: protein: recombinant; tags: N-terminal GST (pGEX-4T-1); label: 3'-biotin. (A gel shift assay detects complexes by their altered migration in electrophoresis.)
Sequence of GST-ELAVL3 (Q14576 whole entry): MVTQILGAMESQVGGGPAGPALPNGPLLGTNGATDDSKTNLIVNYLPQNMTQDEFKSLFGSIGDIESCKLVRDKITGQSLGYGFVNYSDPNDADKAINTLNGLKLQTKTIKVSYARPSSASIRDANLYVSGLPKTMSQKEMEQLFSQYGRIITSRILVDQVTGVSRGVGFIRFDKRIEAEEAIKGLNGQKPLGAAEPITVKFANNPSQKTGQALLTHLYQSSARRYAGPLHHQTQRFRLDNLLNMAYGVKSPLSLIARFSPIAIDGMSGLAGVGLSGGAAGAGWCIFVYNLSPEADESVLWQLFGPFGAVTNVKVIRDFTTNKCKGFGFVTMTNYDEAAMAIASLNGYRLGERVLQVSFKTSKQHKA

With UCCAUCCUAGACACUACCUCAGUCGACGUA (ssRNA) [RICTOR-3'UTR-F3-MUT], the binding result is given as “no binding”.
For CACUCUGCACAUCCUGAUCUCUCUCUCAGA (ssRNA) [MYCN-3'UTR-F1-MUT] the value was “no binding”.
